How the values were obtained:
[1] = molecular target: SARS-CoV-2 B.1.1.7 ('UK', alpha) variant spike protein on pseudotyped virus or live virus (SARS-CoV-2 (B.1.1.7)); test: cell-based or functional assay
[2] = molecular target: SARS-CoV-2 B.1.351 ('SA', beta) variant spike protein on pseudotyped virus or live virus (SARS-CoV-2 (B.1.351)), P0DTC2; test: cell-based or functional assay

Binder	live SARS CoV-2 neutralization, ng/mL (quantity not given) [1]	live SARS CoV-2 neutralization, ng/mL (quantity not given) [2]	pseudovirus neutralization, ng/mL (quantity not given) [2]
purified R2G3 CDR3-knob (after enterokinase cleavage from trxA) (modifications not checked) peptide: EGDKTCPDGYEHTCGCIGGCGCKRSACIGALCCQASLGGWLSDGETYTYEF	2.48 ng/mL	374 ng/mL	66.2 ng/mL
R2D9 CDR3-knob (modifications not checked) peptide: ITHKTCPNGYNWFDRCCSWDGTCGDGCCSNRAWPSGNGRADSSIGETYGYEF			22.6 ng/mL

Source: patent US20240262893A1
